Measurements reported in US20170002068A1 (YEDA RESEARCH AND DEVELOPMENT, published 2017).

T1: murine amphiregulin (mouse, UniProt P31955 94-191, limits assumed)
T1 construct: also called mAREG; murine AREG
T1 sequence (looked up): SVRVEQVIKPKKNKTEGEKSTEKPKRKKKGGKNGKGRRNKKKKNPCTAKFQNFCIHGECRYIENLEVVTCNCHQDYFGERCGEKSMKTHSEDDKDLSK

T2: human betacellulin (human, UniProt P35070 32-111)
T2 construct: also called hBTC; BTC
T2 sequence (looked up): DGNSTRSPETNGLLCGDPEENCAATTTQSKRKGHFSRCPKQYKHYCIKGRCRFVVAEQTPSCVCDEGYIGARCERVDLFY

T3: murine heparin-binding EGF-like growth factor (mouse, UniProt Q06186 63-148, limits assumed)
T3 construct: also called mHB-EGF
T3 sequence (looked up): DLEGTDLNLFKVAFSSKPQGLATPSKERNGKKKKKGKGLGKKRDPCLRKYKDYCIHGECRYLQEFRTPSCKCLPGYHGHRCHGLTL

T4: human neuregulin 1 (human, UniProt Q02297-6 177-241, limits assumed)
T4 construct: also called hNRG1; NRG1
T4 sequence (looked up): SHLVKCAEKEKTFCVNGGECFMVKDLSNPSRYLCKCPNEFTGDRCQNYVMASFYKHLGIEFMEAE

B1: human amphiregulin (ligand, UniProt P15514 101-198, looked up)
chain: SVRVEQVVKPPQNKTESENTSDKPKRKKKGGKNGKNRRNRKKKNPCNAEFQNFCIHGECKYIEHLEAVTCKCQQEYFGERCGEKSMKTHSMIDSSLSK
notes: also called AREG; hAREG
B2: AR558, anti-AREG monoclonal antibody (antibody, V domains shown)
VH: EVQLQQSGAELVKPGASVKLSCTASGFNIKDTYMHWVKQRPEQGLEWIGRIDPANRSTKYDPKFQGKATITADTSSNTADLHLSSLTSEDTAVYYCARLYGDSVWYFDVWGAGTTVTVSS
VL: QIVLTQSPAILSASPGEKVTMTCRAGSSVNYIHWYQQKPGSSPKPWIYATSNLASGVPARFSGSGSGTSYSLTISRVEAEDAATYYCQQWSGYPPMLTFGAGTKLELKR
notes: Mouse hybridoma mAb generated in AREG knockout mice; they may cover only the variable regions; also called mAb AR558
B3: AR30, anti-AREG monoclonal antibody (antibody, V domains shown)
VH: EVQLQQSGAELVRSGASVKLSCTASGFNIKDSYMHWVKQRPEQGLEWIGWVDPDNGDTEYAPEFQGRATLTADTFSSTAYLQLTSLTSEDTAVYYCNAPSTYGHYGFAYWGQGTLVTVSA
VL: DIVMTQAAPSVPVTPGESVSISCRSSKSLLHSNGKAYLYWFLQRPGQSPQLLIYRMSNLASGVPDRFSGSGSGTAFTLRISRVEAEDVGVYYCMQHLEYPLTFGAGTKLELKR
notes: Mouse hybridoma mAb raised against TRX-fused EGF-like domain of human AREG; they may cover only the variable regions; also called mAb AR30; AR30 mAb

How the values were obtained:
[1] = target: T5, Epidermal Growth Factor Receptor (human, UniProt P00533 25-1210); experiment: displacement of 125I-EGF (50 ng/mL) by unlabeled ligand on MCAS ovarian cancer cells, on ice
T5 construct: whole, on cells; also called EGFR; ERBB1
Description: (§1) The cells were later washed and lysed, and the associated radioactivity was determined. […] The cells were later washed and lysed in 1 N NaOH. Cell-associated radioactivity was determined. […] Washed immunocomplexes, along with whole extracts, were immunoblotted with the indicated antibodies.

[2] = target: T5, Epidermal Growth Factor Receptor; experiment: displacement of 125I-EGF (50 ng/mL) from MCAS ovarian cancer cells by unlabeled ligand, 3 h on ice, cell-associated radioactivity
Description: as §1

[3] = target: T5, Epidermal Growth Factor Receptor; experiment: cell-based or functional assay
murine amphiregulin [4] = target: T1, murine amphiregulin; experiment: ELISA, wells coated with 400 ng/mL ligand, mAb 2 h, anti-mouse-HRP, ABTS, 415 nm (legend; the y axis has no title)
Description: (§2) Thereafter, wells were incubated for two hours with an anti-mouse antibody conjugated to HRP, followed by a 30 minute incubation with ATBS. Signals were determined using an ELISA reader (set at 415 nm). […] Thereafter, wells were incubated for two hours with an anti-mouse antibody conjugated to HRP, followed by a 30-min incubation with ATBS. Signals were determined using an ELISA reader (set at 415 nm). […] Thereafter, wells were incubated for two hours with an anti-mouse antibody conjugated to HRP, followed by a 20-min incubation with ATBS. Signals were determined using an ELISA reader (set at 420 nm).

[5] = target: T6, human heparin-binding EGF-like growth factor (human, UniProt Q99075 63-148); experiment: as above
T6 construct: also called hHB-EGF; HB-EGF
Description: as §2

[6] = target: T7, human epidermal growth factor (human, UniProt P01133 971-1023); experiment: ELISA, wells coated with ligand at 400, 200, 100, 50, 25 and 10 ng/mL, mAb 1 µg/mL 2 h, anti-mouse-HRP, ABTS; absorbance 415 nm on the sheet
T7 construct: also called hEGF; EGF
Description: as §2

human amphiregulin [7] = target: B1; experiment: ELISA, wells coated with human AREG at 0, 10, 50, 100, 500 ng/mL, antibody 2 h, anti-mouse-HRP, ABTS, absorbance 415 nm
Description: Thereafter, wells were incubated for two hours with an anti-mouse antibody conjugated to HRP, followed by a 30 minute incubation with ATBS. Signals were determined using an ELISA reader (set at 415 nm).

murine amphiregulin [8] = target: T1, murine amphiregulin; experiment: SPR (BIAcore 3000), ligand in solution over AR30-coated surface
Description: (§3) SPR was performed on a BIAcore 3000 instrument (BIAcore, Uppsala, Sweden). Proteins were diluted in 100 mM Na-acetate (pH 4.6) to 20 μg/ml and immobilized on a CM5 sensor chip using a standard protocol of amine coupling. The protein solution was flown over the chip for 5 minutes at a rate of 20 μl/min. […] The net signal was obtained by subtracting the blank signal (plain dextran matrix) from the signal recorded from the immobilized surface. The association phase for analyte binding to all ligands was followed for 4 minutes, and dissociation phases were monitored for 3 minutes. Surface regeneration between consecutive binding cycles included a 1 min injection of 2 mM NaOH. The response was monitored as a function of time (sensorgram). Multi-concentration data underwent fitting using the software BIAevaluation 3.2.

human betacellulin = target: T2, human betacellulin; experiment: as above
Description: as §3

[9] = target: T8, human transforming growth factor alpha (human, UniProt P01135 40-89); experiment: as above
T8 construct: also called hTGF-alpha; TGF-alpha
Description: as §3

human epigen = target: T9, human epigen (human, UniProt Q6UW88 24-104, limits assumed); experiment: as above
T9 construct: also called hEPG; EPG
Description: as §3

[10] = target: T3, murine heparin-binding EGF-like growth …; experiment: as above
Description: as §3

human amphiregulin [11] = target: B1; experiment: as above
Description: as §3

human neuregulin 1 = target: T4, human neuregulin 1; experiment: as above
Description: as §3

[12] = target: T6, human heparin-binding EGF-like growth …; experiment: as above
Description: as §3

[13] = target: T7, human epidermal growth factor; experiment: as above
Description: as §3

T7 sequence (P01133 971-1023 limits assumed): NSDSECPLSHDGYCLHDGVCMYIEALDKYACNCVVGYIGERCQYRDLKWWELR
T6 sequence (Q99075 63-148 limits assumed): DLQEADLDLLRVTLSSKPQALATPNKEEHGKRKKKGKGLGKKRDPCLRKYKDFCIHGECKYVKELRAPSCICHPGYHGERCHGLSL
T9 sequence (Q6UW88 24-104 limits assumed): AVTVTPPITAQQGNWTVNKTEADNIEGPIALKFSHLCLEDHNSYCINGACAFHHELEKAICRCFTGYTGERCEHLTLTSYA

Question: How did the “fold lower binding affinity compared to EGF” value [1] turn out when B1 was run?
Answer: ~100 fold

Question: What about the “IC50 (read off the curve)” value [2] of the same binder?
Answer: ~0.1 µg/mL

Question: And the “endocytosis-mediated downregulation of EGFR (MCAS cells, 125I-EGF binding after stimulation)” value [3]?
Answer: ~30%

Question: Which results are given for B2?
Answer: binding result (murine amphiregulin [4]): no binding (tested: 400 ng/mL coated ligand); binding result [5]: no binding (tested: 400 ng/mL coated ligand); binding result [6]: no binding (tested: 400 ng/mL coated ligand, mAb 1 µg/mL); binding result (human amphiregulin [7]): binds

Question: Which Kd (murine amphiregulin [8]) does the source give for B3 here?
Answer: > 10 µM

Question: What about the Kd (human betacellulin) of the same binder?
Answer: > 10 µM

Question: What about the Kd [9] of the same binder?
Answer: > 10 µM

Question: And the Kd (human epigen)?
Answer: > 10 µM

Question: And the Kd [10]?
Answer: 6.65 µM

Question: And the Kd (human amphiregulin [11])?
Answer: 0.0017 µM

Question: What about the Kd (human neuregulin 1) of the same binder?
Answer: > 10 µM

Question: What about the Kd [12] of the same binder?
Answer: 0.08 µM

Question: What about the Kd [13] of the same binder?
Answer: > 10 µM
